Square brackets hold non-standard residues; d marks the D form. Ala(1H-tetrazol-5-yl) = N[C@@H](Cc1nnn[nH]1)C(=O)O
T1: PAC1 receptor (UniProt P41586 21-468, limits assumed)
T1 sequence (looked up): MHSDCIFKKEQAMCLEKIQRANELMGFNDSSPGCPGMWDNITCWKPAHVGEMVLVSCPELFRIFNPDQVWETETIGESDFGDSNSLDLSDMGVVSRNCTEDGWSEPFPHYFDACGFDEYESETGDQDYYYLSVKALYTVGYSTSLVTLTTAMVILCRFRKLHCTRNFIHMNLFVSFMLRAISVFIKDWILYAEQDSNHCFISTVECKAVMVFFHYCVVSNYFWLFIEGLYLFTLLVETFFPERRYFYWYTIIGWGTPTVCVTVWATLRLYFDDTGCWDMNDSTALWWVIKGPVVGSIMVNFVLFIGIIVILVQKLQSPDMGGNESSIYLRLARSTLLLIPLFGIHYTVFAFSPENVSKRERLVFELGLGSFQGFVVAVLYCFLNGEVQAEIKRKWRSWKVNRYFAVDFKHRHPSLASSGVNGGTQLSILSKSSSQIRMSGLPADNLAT

T2: VPAC1 receptor (UniProt P32241 31-457, limits assumed)
T2 sequence (looked up): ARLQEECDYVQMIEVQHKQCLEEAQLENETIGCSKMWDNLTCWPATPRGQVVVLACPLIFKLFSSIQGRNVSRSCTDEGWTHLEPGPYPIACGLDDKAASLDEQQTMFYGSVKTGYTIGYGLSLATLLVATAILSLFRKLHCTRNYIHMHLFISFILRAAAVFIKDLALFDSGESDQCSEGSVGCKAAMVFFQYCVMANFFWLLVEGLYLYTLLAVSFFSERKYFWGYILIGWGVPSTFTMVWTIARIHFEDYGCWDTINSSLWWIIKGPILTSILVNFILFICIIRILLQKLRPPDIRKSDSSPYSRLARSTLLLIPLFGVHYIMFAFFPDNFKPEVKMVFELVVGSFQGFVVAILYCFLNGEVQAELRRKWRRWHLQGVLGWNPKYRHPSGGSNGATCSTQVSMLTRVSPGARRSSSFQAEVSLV


Key:
[1] = target: T1, PAC1 receptor; experiment: cell-based or functional assay
[2] = target: T2, VPAC1 receptor; experiment: cell-based or functional assay

Binder	EC50 (PAC1R), cAMP inducing effect [1]	EC50 (VPAC1R), cAMP inducing effect [2]
Ac-HA[Ala(1H-tetrazol-5-yl)]GIFT[Ala(1H-tetrazol-5-yl)]SYSRYRKQAAVKKYLAAVL-NH2 (SMILES CC[C@H](C)[C@H](NC(=O)CNC(=O)[C@H](Cc1nnn[nH]1)NC(=O)[C@H](C)NC(=O)[C@H](Cc1c[nH]cn1)NC(C)=O)C(=O)N[C@@H](Cc1ccccc1)C(=O)N[C@H](C(=O)N[C@@H](Cc1nnn[nH]1)C(=O)N[C@@H](CO)C(=O)N[C@@H](Cc1ccc(O)cc1)C(=O)N[C@@H](CO)C(=O)N[C@@H](CCCNC(=N)N)C(=O)N[C@@H](Cc1ccc(O)cc1)C(=O)N[C@@H](CCCNC(=N)N)C(=O)N[C@@H](CCCCN)C(=O)N[C@@H](CCC(N)=O)C(=O)N[C@@H](C)C(=O)N[C@@H](C)C(=O)N[C@H](C(=O)N[C@@H](CCCCN)C(=O)N[C@@H](CCCCN)C(=O)N[C@@H](Cc1ccc(O)cc1)C(=O)N[C@@H](CC(C)C)C(=O)N[C@@H](C)C(=O)N[C@@H](C)C(=O)N[C@H](C(=O)N[C@@H](CC(C)C)C(N)=O)C(C)C)C(C)C)[C@@H](C)O) [Peptide 25]	0.088 nM	0.028 nM
Ac-HS[Ala(1H-tetrazol-5-yl)]GIFT[Ala(1H-tetrazol-5-yl)]AYSRYRKQAAVKKYLAAVL-NH2 (SMILES CC[C@H](C)[C@H](NC(=O)CNC(=O)[C@H](Cc1nnn[nH]1)NC(=O)[C@H](CO)NC(=O)[C@H](Cc1c[nH]cn1)NC(C)=O)C(=O)N[C@@H](Cc1ccccc1)C(=O)N[C@H](C(=O)N[C@@H](Cc1nnn[nH]1)C(=O)N[C@@H](C)C(=O)N[C@@H](Cc1ccc(O)cc1)C(=O)N[C@@H](CO)C(=O)N[C@@H](CCCNC(=N)N)C(=O)N[C@@H](Cc1ccc(O)cc1)C(=O)N[C@@H](CCCNC(=N)N)C(=O)N[C@@H](CCCCN)C(=O)N[C@@H](CCC(N)=O)C(=O)N[C@@H](C)C(=O)N[C@@H](C)C(=O)N[C@H](C(=O)N[C@@H](CCCCN)C(=O)N[C@@H](CCCCN)C(=O)N[C@@H](Cc1ccc(O)cc1)C(=O)N[C@@H](CC(C)C)C(=O)N[C@@H](C)C(=O)N[C@@H](C)C(=O)N[C@H](C(=O)N[C@@H](CC(C)C)C(N)=O)C(C)C)C(C)C)[C@@H](C)O) [Peptide 27]	0.06 nM	0.044 nM
Ac-HS[Ala(1H-tetrazol-5-yl)]GIFT[Ala(1H-tetrazol-5-yl)]SYSRYRKAAAVKKYLAAVL-NH2 (SMILES CC[C@H](C)[C@H](NC(=O)CNC(=O)[C@H](Cc1nnn[nH]1)NC(=O)[C@H](CO)NC(=O)[C@H](Cc1c[nH]cn1)NC(C)=O)C(=O)N[C@@H](Cc1ccccc1)C(=O)N[C@H](C(=O)N[C@@H](Cc1nnn[nH]1)C(=O)N[C@@H](CO)C(=O)N[C@@H](Cc1ccc(O)cc1)C(=O)N[C@@H](CO)C(=O)N[C@@H](CCCNC(=N)N)C(=O)N[C@@H](Cc1ccc(O)cc1)C(=O)N[C@@H](CCCNC(=N)N)C(=O)N[C@@H](CCCCN)C(=O)N[C@@H](C)C(=O)N[C@@H](C)C(=O)N[C@@H](C)C(=O)N[C@H](C(=O)N[C@@H](CCCCN)C(=O)N[C@@H](CCCCN)C(=O)N[C@@H](Cc1ccc(O)cc1)C(=O)N[C@@H](CC(C)C)C(=O)N[C@@H](C)C(=O)N[C@@H](C)C(=O)N[C@H](C(=O)N[C@@H](CC(C)C)C(N)=O)C(C)C)C(C)C)[C@@H](C)O) [Peptide 28]	0.084 nM	0.029 nM
Ac-HS[Ala(1H-tetrazol-5-yl)]GIFT[Ala(1H-tetrazol-5-yl)]SYSRYRRQLAVRRYLAAVL-NH2 (SMILES CC[C@H](C)[C@H](NC(=O)CNC(=O)[C@H](Cc1nnn[nH]1)NC(=O)[C@H](CO)NC(=O)[C@H](Cc1c[nH]cn1)NC(C)=O)C(=O)N[C@@H](Cc1ccccc1)C(=O)N[C@H](C(=O)N[C@@H](Cc1nnn[nH]1)C(=O)N[C@@H](CO)C(=O)N[C@@H](Cc1ccc(O)cc1)C(=O)N[C@@H](CO)C(=O)N[C@@H](CCCNC(=N)N)C(=O)N[C@@H](Cc1ccc(O)cc1)C(=O)N[C@@H](CCCNC(=N)N)C(=O)N[C@@H](CCCNC(=N)N)C(=O)N[C@@H](CCC(N)=O)C(=O)N[C@@H](CC(C)C)C(=O)N[C@@H](C)C(=O)N[C@H](C(=O)N[C@@H](CCCNC(=N)N)C(=O)N[C@@H](CCCNC(=N)N)C(=O)N[C@@H](Cc1ccc(O)cc1)C(=O)N[C@@H](CC(C)C)C(=O)N[C@@H](C)C(=O)N[C@@H](C)C(=O)N[C@H](C(=O)N[C@@H](CC(C)C)C(N)=O)C(C)C)C(C)C)[C@@H](C)O) [Peptide 21]	0.102 nM	0.268 nM
HSXAIFTXSYSRYRKQLAVKKYLAAVL (N-terminal acetyl (Ac-); Tz (aspartic acid with carboxyl group replaced by tetrazole) at positions 3 and 8; C-terminal amide (NH2)) [Peptide 23]	0.079 nM	0.072 nM
Ac-HS[Ala(1H-tetrazol-5-yl)]GIFT[Ala(1H-tetrazol-5-yl)]AYSRYRKALAVKKYLAAVL-NH2 (SMILES CC[C@H](C)[C@H](NC(=O)CNC(=O)[C@H](Cc1nnn[nH]1)NC(=O)[C@H](CO)NC(=O)[C@H](Cc1c[nH]cn1)NC(C)=O)C(=O)N[C@@H](Cc1ccccc1)C(=O)N[C@H](C(=O)N[C@@H](Cc1nnn[nH]1)C(=O)N[C@@H](C)C(=O)N[C@@H](Cc1ccc(O)cc1)C(=O)N[C@@H](CO)C(=O)N[C@@H](CCCNC(=N)N)C(=O)N[C@@H](Cc1ccc(O)cc1)C(=O)N[C@@H](CCCNC(=N)N)C(=O)N[C@@H](CCCCN)C(=O)N[C@@H](C)C(=O)N[C@@H](CC(C)C)C(=O)N[C@@H](C)C(=O)N[C@H](C(=O)N[C@@H](CCCCN)C(=O)N[C@@H](CCCCN)C(=O)N[C@@H](Cc1ccc(O)cc1)C(=O)N[C@@H](CC(C)C)C(=O)N[C@@H](C)C(=O)N[C@@H](C)C(=O)N[C@H](C(=O)N[C@@H](CC(C)C)C(N)=O)C(C)C)C(C)C)[C@@H](C)O) [Peptide 26]	0.066 nM	0.075 nM
Ac-HA[Ala(1H-tetrazol-5-yl)]GIFT[Ala(1H-tetrazol-5-yl)]AYSRYRKQLAVKKYLAAVL-NH2 (SMILES CC[C@H](C)[C@H](NC(=O)CNC(=O)[C@H](Cc1nnn[nH]1)NC(=O)[C@H](C)NC(=O)[C@H](Cc1c[nH]cn1)NC(C)=O)C(=O)N[C@@H](Cc1ccccc1)C(=O)N[C@H](C(=O)N[C@@H](Cc1nnn[nH]1)C(=O)N[C@@H](C)C(=O)N[C@@H](Cc1ccc(O)cc1)C(=O)N[C@@H](CO)C(=O)N[C@@H](CCCNC(=N)N)C(=O)N[C@@H](Cc1ccc(O)cc1)C(=O)N[C@@H](CCCNC(=N)N)C(=O)N[C@@H](CCCCN)C(=O)N[C@@H](CCC(N)=O)C(=O)N[C@@H](CC(C)C)C(=O)N[C@@H](C)C(=O)N[C@H](C(=O)N[C@@H](CCCCN)C(=O)N[C@@H](CCCCN)C(=O)N[C@@H](Cc1ccc(O)cc1)C(=O)N[C@@H](CC(C)C)C(=O)N[C@@H](C)C(=O)N[C@@H](C)C(=O)N[C@H](C(=O)N[C@@H](CC(C)C)C(N)=O)C(C)C)C(C)C)[C@@H](C)O) [Peptide 24]	0.083 nM	0.088 nM
Ac-HS[Ala(1H-tetrazol-5-yl)]GIFT[Ala(1H-tetrazol-5-yl)]SYSRYRRQLAVRRYLAAVLGRR-NH2 (SMILES CC[C@H](C)[C@H](NC(=O)CNC(=O)[C@H](Cc1nnn[nH]1)NC(=O)[C@H](CO)NC(=O)[C@H](Cc1c[nH]cn1)NC(C)=O)C(=O)N[C@@H](Cc1ccccc1)C(=O)N[C@H](C(=O)N[C@@H](Cc1nnn[nH]1)C(=O)N[C@@H](CO)C(=O)N[C@@H](Cc1ccc(O)cc1)C(=O)N[C@@H](CO)C(=O)N[C@@H](CCCNC(=N)N)C(=O)N[C@@H](Cc1ccc(O)cc1)C(=O)N[C@@H](CCCNC(=N)N)C(=O)N[C@@H](CCCNC(=N)N)C(=O)N[C@@H](CCC(N)=O)C(=O)N[C@@H](CC(C)C)C(=O)N[C@@H](C)C(=O)N[C@H](C(=O)N[C@@H](CCCNC(=N)N)C(=O)N[C@@H](CCCNC(=N)N)C(=O)N[C@@H](Cc1ccc(O)cc1)C(=O)N[C@@H](CC(C)C)C(=O)N[C@@H](C)C(=O)N[C@@H](C)C(=O)N[C@H](C(=O)N[C@@H](CC(C)C)C(=O)NCC(=O)N[C@@H](CCCNC(=N)N)C(=O)N[C@@H](CCCNC(=N)N)C(N)=O)C(C)C)C(C)C)[C@@H](C)O) [Peptide 22]	0.13 nM	0.457 nM

Source: patent US20220202905A1, “COMPOSITION FOR PREVENTING OR TREATING NEUROTROPHIC KERATITIS WHICH CONTAINS PACAP PEPTIDE OR STABILIZED PACAP PEPTIDE” (SENJU PHARMACEUTICAL CO., LTD., priority 2019, published 2022)
